We go through 7 molecules from patent US20170355770A1 (ASKGENE PHARMA, published 2017).

Assay [1] deals with PD-L1 ligand (analyte of the Octet affinity measurement) (UniProt Q9NZQ7 19-238, limits assumed). The experiment in a line: BLI (Octet RED 96), antibody captured on anti-human IgG sensor, PD-L1 in solution, 1:1 fit. The method, then: Affinity Measurement: The affinity measurement was conducted with Octet RED 96 (ForteBio) instrument at 30 degree Celsius. Briefly, anti-human IgG capture sensor (AHC from ForteBio cat #18-5060) was equilibrated with assay buffer (1× dilution of 10× Kinetics Buffer (ForteBio, Cat #18-5032). Test antibody samples were diluted to 3 ug/mL and allowed to bind to the sensors for 5 min. The sensors were then washed in assay buffer for 3 minutes, and PD-L1 ligand diluted at different concentrations were allowed to bind to the mAb coated on the sensors for 5 minutes. Afterwards, dissociation was followed for 10 minutes in the assay buffer. The sensors could be regenerated by washing in glycine buffer and assay buffer 3 times. The data were fitted with 1:1 binding model using the ForteBio software.

Assay [2] concerns the target T1, human PDL2 (human, UniProt Q9BQ51 20-219, limits assumed).
T1 construct: Bought protein
T1 sequence (looked up): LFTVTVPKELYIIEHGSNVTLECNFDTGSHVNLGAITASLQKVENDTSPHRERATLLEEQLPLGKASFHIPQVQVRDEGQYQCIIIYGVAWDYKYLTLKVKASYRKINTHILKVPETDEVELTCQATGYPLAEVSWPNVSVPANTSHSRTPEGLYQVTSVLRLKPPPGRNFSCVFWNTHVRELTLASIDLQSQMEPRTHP
The experiment in a line: ELISA on coated human PDL2 (printed: hu PDL2-Fc), purified chimeric antibody [panel hu PDL2-Fc ELISA]. Here is the method: PD-L1 binding ELISAs: B cell cloning supernatants were tested for binding to PD-L1 by ELISA. ELISA plates were coated with 100 uL antigen at 0.5 or 1 ug/mL in PBS (Life Technologies, cat. #14190-250) overnight at 4° C. or for 1 hour at 37° C. […] Plates were then blocked with PBS+10% goat serum for 1 hour. After washing with deionized water, samples were added in PBS/10% goat serum and incubated for 1 hour. […] Plates were then washed with deionized water and 100 uL TMB substrate (Thermo Scientific, cat. #PI134021) was added to each well. Development was stopped with 100 uL 1N H₂SO₄, and OD450 was measured using a microplate spectrophotometer.
Purified chimeric and humanized antibodies were tested for binding to PD-L1 by ELISA. Antigens tested include; human PD-L1-Fc, human PD-L1-his, murine PD-L1-his, and cynomolgus PD-L1-his (Sinobiological, cat. #90251-CO8H) and human PDL2 (Acrobiosystems, cat. #PD2-H5251). Protocols were the same as for testing B cell cloning supernatants except that the secondary antibodies were as follows; for human PD-L1-Fc the secondary was goat anti-human kappa-HRP (Novex, Life Technologies, cat. #A18853), for human PD-L1-his, murine PD-L1-his and cynomolgus PD-L1-his the secondary was goat anti-human IgG Fc-HRP (Jackson ImmunoResearch, cat. #109-005-098).

In assay [3] the target is T1, human PDL2. Put plainly: ELISA, coated human PDL2. (In general: In an ELISA, binding on a coated surface is turned into a signal by an enzyme label.)
The target of assay [4] is human PD-L1 expressed on cells (human, UniProt Q9NZQ7 19-290). The experiment in a line: cell-based or functional assay.
The next assay deals with T2, human PD-L1-Fc (human, UniProt Q9NZQ7 19-238, limits assumed).
T2 construct: Bought fusion protein; not shown: Fc part
The experiment in a line: competition ELISA: coated human PD-L1-Fc, antibody added first, then PD1-his, detected with anti-His-HRP.

Substitutions are numbered along the chain they refer to.

Sequence of PD-L1 ligand (analyte of the Octet affinity measurement) (Q9NZQ7 19-238 limits assumed): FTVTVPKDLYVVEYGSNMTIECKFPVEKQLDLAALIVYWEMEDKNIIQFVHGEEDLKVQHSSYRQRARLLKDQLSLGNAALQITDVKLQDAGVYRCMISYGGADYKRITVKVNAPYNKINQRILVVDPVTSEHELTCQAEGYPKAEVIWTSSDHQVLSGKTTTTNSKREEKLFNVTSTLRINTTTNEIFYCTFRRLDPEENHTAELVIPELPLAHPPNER
T2 sequence (Q9NZQ7 19-238 limits assumed): as above
Sequence of human PD-L1 expressed on cells (Q9NZQ7 19-290): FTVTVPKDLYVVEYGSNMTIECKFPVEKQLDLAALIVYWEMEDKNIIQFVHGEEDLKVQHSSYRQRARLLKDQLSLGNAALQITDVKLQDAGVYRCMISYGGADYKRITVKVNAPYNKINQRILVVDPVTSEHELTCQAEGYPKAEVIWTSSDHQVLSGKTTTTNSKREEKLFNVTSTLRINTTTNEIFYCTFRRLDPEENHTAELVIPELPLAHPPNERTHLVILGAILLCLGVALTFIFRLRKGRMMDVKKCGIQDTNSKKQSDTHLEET

B1: chimeric anti-PD-L1 antibody 115C1 (antibody, V domains shown)
VH: CQSVKESEGGLFKPTDTLTLTCTVSGFSLSSVAVSWVRQAPGKGLEWIGTISYTGNTYYASWAKSRSTITRNTNENTVTLKMPSLTVADTATYFCAKEILYYGMDFWGPGTLVTVSS
VL: DIVMTQTPSSVSAAVGGTVTINCQASQSISSYLAWYQQKPGQPPKLLIYGASNLESGVPSRFKGSGSGTDFTLTISDLECADAATYYCQSTYGSTSTSDYGNAFGGGTKVVVVR
In general, Kd refers to a measure of binding affinity in units of concentration. Low readings indicate a tighter complex, high ones a looser complex. A word on the koff: it is the rate constant with which the complex falls apart. A low value points to a long-lived complex. One may read the kon as the rate constant with which the complex forms. In assay [1], B1 had a Kd of 0.051 nM, a koff of 2.08e-05 s⁻¹ and a kon of 455000 M⁻¹ s⁻¹. Moreover, the binding result in the assay with human PDL2 [2] was “no binding (tested: 4 µg/mL)”.

B2: chimeric anti-PD-L1 antibody 111H2 (antibody, V domains shown)
VH: QEQLVESGGGLVQPGGTLKLSCKGSGFDLSSNAMCWVRQAPGKGLEWIGCIVYGNCYYASWVNGRFTISSDNAQSSVDLQLNSLTAADTATYFCARDPAGSSVYTGGFNIWGPGTLVTVSS
VL: AIDMTQTPSPVSAAVGDTVTINCQASENIYSFLAWYQQKPGHSPKPLIYFASKLASGVPSRFKGSGSGTQFTLTISDVQCDDAATYYCQQTVSYKNADTAFGGGTKVVVVR
notes: also called chimeric anti-PD-L1 111H2 antibody
Take B2: in the assay with human PDL2 [3], the binding result is given as “no binding”. In assay [4], the “EC50 of the rise of luciferase activity, PD1/PD-L1 blockade reporter assay (CHO-K1/TCRA/PD-L1 cells with PD1/NFAT Jurkat cells); column Chimeric of the table under the plot” value is 0.0483 µg/mL. In assay [1], this molecule displayed a Kd of 0.183 nM, a koff of 0.000197 s⁻¹ and a kon of 1.07e+06 M⁻¹ s⁻¹.

B3: chimeric anti-PD-L1 antibody 116F3 (antibody, V domains shown)
VH: CQSVKESEGGLFKPTDTLTLTCTVSGIDLSSISIGWVRQAPGNGLEWIGTISDSGSAYYASWAKSRSTITRNTNENTVTLKMTSLTAADTASYFCAKEILYYGMDLWGPGTLVTVSS
VL: DVVMTQTPASVSGAVGGTVTIKCQASEDIESYLAWYQQKPGQPPKLLIYAASNLEPGVPSRFKGSRSGTEYTLTITDLECDDAATYHCQATYGSTSSSDYGNAFGGGTKVVVVR
Consider B3, for which, in assay [1], the Kd is less than 0.001 nM, the koff is less than 1e-07 s⁻¹ and the kon is 682000 M⁻¹ s⁻¹. For the same molecule, in the assay with human PDL2 [2], the binding result is given as “no binding (tested: 4 µg/mL)”. In addition, the “IC50 (read off the curve)” value with human PD-L1-Fc was roughly 0.2 µg/mL.

B4: chimeric anti-PD-L1 antibody 113F1 (antibody, V domains shown)
VH: B3 VH with S33A, G35S, S52N, D53S, S54Y, A57T, K64Q, L106V
VL: B1 VL with I2V, S9A, S12E, N22K, G50A, D70E, F71Y, A81D, S94T
In assay [1], B4 yielded a Kd of 0.115 nM, a koff of 3.78e-05 s⁻¹ and a kon of 362000 M⁻¹ s⁻¹. The binding result with human PDL2 [2] is given as “no binding (tested: 4 µg/mL)”.

B5: chimeric anti-PD-L1 antibody 110B4 (antibody, V domains shown)
VH: B3 VH with T23K, G35S, T50V, S52N, D53S, S54Y, S56N, A57T, S92T
VL: DVVMTQTPASVEAAVGGTVTIKCQASQSISSYFSWYQQKPGQRPKLLIYDASNLESGVPSRFKGSRSGTEYTLTISDLEWDDAATYYCQCTYGSTSSSNYGNNFGGGTKVVVVR
Take B5: the binding result in the assay with human PDL2 [3] was “no binding”. In assay [1], binding was put at a Kd of 0.173 nM, the koff amounted to 6.87e-05 s⁻¹ and the association rate constant (kon) stood at 404000 M⁻¹ s⁻¹.

B6: chimeric anti-PD-L1 antibody 110H8 (antibody, V domains shown)
VH: B3 VH with I32V, G35S, S52G, D53A, S65R, E75L
VL: B3 VL with S12E, G13A, E27Q, D28S, E30S, S31N, P43R, R66G, A90C
For the molecule B6, in the assay with human PDL2 [3], the binding result is “no binding”. In assay [1], this molecule returned a Kd of less than 0.001 nM, a koff of less than 1e-07 s⁻¹ and a kon of 755000 M⁻¹ s⁻¹.

B7: chimeric anti-PD-L1 antibody 115E2 (antibody, V domains shown)
VH: B3 VH with T15M, S30G, I32V, S33A, G35S, N43K, S52G, D53S, E75L, L106R
VL: B1 VL with I2V, S9A, S12E, A14S, G50A, S56P, D70E, S90A, T97S
Regarding B7, in assay [1], the Kd was 0.1 nM, the koff amounted to 4.99e-05 s⁻¹ and the kon was found to be 532000 M⁻¹ s⁻¹. In the assay with human PDL2 [2], the binding result was “no binding (tested: 4 µg/mL)”.
